Drawing on patent US6485941B1, “Inhibition of the carboxyltransferase component of acetyl-CoA carboxylase, and the use of such inhibition in anti-cancer and anti-lipogenic therapies” (Board of Supervisors of Louisiana State University and …, priority 2002, dated 2002), this text covers Km for one protein.

Substrate in the series: CC(C)(COP(=O)(O)OP(=O)(O)OC[C@H]1O[C@@H](n2cnc3c(N)ncnc32)[C@H](O)[C@@H]1OP(=O)(O)O)[C@@H](O)C(=O)NCCC(=O)NCCSC(=O)CC(=O)O
The series can be described thus: Carboxyltransferase inhibition, assayed in the reverse direction with coupled spectrophotometric detection. It counts as biochemical, E. coli. The following applies: other: substrate of carboxyltransferase.

Description: Carboxyltransferase was purified from a strain of E. coli that overexpresses the genes encoding the α and β subunits of the enzyme.
Carboxyltransferase was assayed in the reverse direction: the production of acetyl-CoA was detected by using the coupling enzymes malate dehydrogenase and citrate synthase, and the reduction of NAD^+ was measured spectrophotometrically by the method of C.
In Equations [1] and [2], v is the initial velocity, Vm is the maximal velocity, A is the substrate concentration, I is the concentration of inhibitor, Km is the Michaelis constant, Kis is the slope inhibition constant, and Kii is the intercept inhibition constant.
v=VmA/(Km(1+I/Kis)+A(1+I/Kii)) [2]
The activity of carboxyltransferase was measured in the reverse direction using malonyl-CoA and biocytin as substrates.

B1: carboxyltransferase component of E. coli acetyl-CoA carboxylase (Escherichia coli K-12) (protein)
chain 1: MSLNFLDFEQPIAELEAKIDSLTAVSRQDEKLDINIDEEVHRLREKSVELTRKIFADLGAWQIAQLARHPQRPYTLDYVRLAFDEFDELAGDRAYADDKAIVGGIARLDGRPVMIIGHQKGRETKEKIRRNFGMPAPEGYRKALRLMQMAERFKMPIITFIDTPGAYPGVGAEERGQSEAIARNLREMSRLGVPVVCTVIGEGGSGGALAIGVGDKVNMLQYSTYSVISPEGCASILWKSADKAPLAAEAMGIIAPRLKELKLIDSIIPEPLGGAHRNPEAMAASLKAQLLADLADLDVLSTEDLKNRRYQRLMSYGYA
chain 2: MSWIERIKSNITPTRKASIPEGVWTKCDSCGQVLYRAELERNLEVCPKCDHHMRMTARNRLHSLLDEGSLVELGSELEPKDVLKFRDSKKYKDRLASAQKETGEKDALVVMKGTLYGMPVVAAAFEFAFMGGSMGSVVGARFVRAVEQALEDNCPLICFSASGGARMQEALMSLMQMAKTSAALAKMQERGLPYISVLTDPTMGGVSASFAMLGDLNIAEPKALIGFAGPRVIEQTVREKLPPGFQRSEFLIEKGAIDMIVRRPEMRLKLASILAKLMNLPAPNPEAPREGVVVPPVPDQEPEA
notes: made in house; host or cells: E. coli overexpression strain (Blanchard et al. 1998; G. Waldrop, LSU)
Broadly, the Km is the substrate concentration at which the rate is half of its maximum. As to B1, the Km came out at 100 µM.
